What all share (experiment): cell-based or functional assay
The target in test [1] is coagulation factor IX / activated coagulation factor IX (human), P00740.
Test [2] deals with human Factor X (Enzyme Research Laboratories, Inc.) (human, UniProt P00742 41-488).
The target of test [3] is coagulation factor IX / activated coagulation factor IX (human) (UniProt P00740).
coagulation factor IX / activated coagulation factor IX (human), sequence (P00740 47-461): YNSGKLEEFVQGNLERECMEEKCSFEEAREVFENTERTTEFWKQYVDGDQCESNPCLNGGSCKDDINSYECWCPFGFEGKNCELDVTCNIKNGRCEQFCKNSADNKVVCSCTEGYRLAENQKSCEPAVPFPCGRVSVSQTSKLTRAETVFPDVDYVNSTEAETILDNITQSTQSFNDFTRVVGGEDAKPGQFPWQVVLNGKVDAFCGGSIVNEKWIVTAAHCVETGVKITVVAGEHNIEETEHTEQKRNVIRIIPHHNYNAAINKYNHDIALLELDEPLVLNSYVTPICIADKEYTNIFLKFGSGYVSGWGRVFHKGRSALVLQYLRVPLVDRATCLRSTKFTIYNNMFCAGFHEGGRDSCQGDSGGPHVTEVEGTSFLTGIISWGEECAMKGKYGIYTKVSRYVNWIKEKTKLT

human Factor X (Enzyme Research Laboratories, Inc.), sequence (P00742 other isoform, or with tags, fused parts or gaps limits assumed): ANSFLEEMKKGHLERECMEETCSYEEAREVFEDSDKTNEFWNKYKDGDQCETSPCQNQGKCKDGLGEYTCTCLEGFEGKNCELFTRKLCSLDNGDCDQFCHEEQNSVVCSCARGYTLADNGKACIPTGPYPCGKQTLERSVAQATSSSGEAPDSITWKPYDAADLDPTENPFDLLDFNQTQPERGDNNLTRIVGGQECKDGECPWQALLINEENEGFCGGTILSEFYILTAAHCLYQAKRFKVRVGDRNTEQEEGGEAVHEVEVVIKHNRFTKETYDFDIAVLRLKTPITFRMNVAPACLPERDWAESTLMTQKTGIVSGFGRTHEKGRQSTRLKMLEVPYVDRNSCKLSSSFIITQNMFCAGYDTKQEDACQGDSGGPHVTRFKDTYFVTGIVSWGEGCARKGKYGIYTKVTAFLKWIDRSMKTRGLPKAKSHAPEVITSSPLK
coagulation factor IX / activated coagulation factor IX (human), P00740, sequence (P00740 47-461): as the sequence (P00740 47-461) above

B1: commonly shared L chain antibody of A44 H chain, B26 H chain and hybrid L chain BBA(G) (bispecific antibody, V domains shown)
VH 1: MQVQLQQSGAELAKPGASVKLSCKASGYTFTSSWMHWIKQRPGQGLEWLGYINPSSGYTKYNRKFRDKATLTADKSSSTAYMQLTSLTYEDSAVYYCARGGNGYYFDYWGQGTTLTVSS
VH 2: MQVQLQQSGPELVKPGASVKISCKASGYTFTDNNMDWVKQSHGKGLEWIGDINTKSGGSIYNQKFKGKATLTIDKSSSTAYMELRSLTSEDTAVYYCARRRSYGYYFDYWGQGTTLTVSS
VL: DIVMTQSHKFMSTSVGDRVSITCKASQNVGTAVAWYQQKPGQSPKLLIYSASYRYSGVPDRFTGSRYGTDFTLTISNVQSEDLADYLCQQYSNYITFGGGTKLELKRG
In the case of B1, the reduction of coagulation time against no antibody in test [1] is > 70 s.

B2: commonly shared L chain antibody of A44 H chain, B26 H chain and hybrid L chain ABA(G) (bispecific antibody, V domains shown)
VH 1: MQVQLQQSGAELAKPGASVKLSCKASGYTFTSSWMHWIKQRPGQGLEWLGYINPSSGYTKYNRKFRDKATLTADKSSSTAYMQLTSLTYEDSAVYYCARGGNGYYFDYWGQGTTLTVSS
VH 2: MQVQLQQSGPELVKPGASVKISCKASGYTFTDNNMDWVKQSHGKGLEWIGDINTKSGGSIYNQKFKGKATLTIDKSSSTAYMELRSLTSEDTAVYYCARRRSYGYYFDYWGQGTTLTVSS
VL: DIVMTQSHKFMSTSVGDRVSITCKASQDVGTAVAWYQQKPGQSPKLLIYSASYRYSGVPDRFTGSRYGTDFTLTISNVQSEDLADYLCQQYSNYITFGGGTKLELKRG
For the molecule B2, the “reduction of coagulation time against no antibody” value (from here on “reduction … against no antibody”) in test [2] was ≥ 60 s; in test [1], > 60 s.

B3: bispecific antibody of A69H, B26H and hybrid L chain BBa (bispecific antibody, V domains shown)
VH 1: MEVQLQQSGAELVKPGASVKLSCTASGFNIKDYYMHWIKQRPGQGLEWLGYINPSSGYTKYNRKFRDKATLTADKSSSTAYMQLTSLTYEDSAVYYCARGGNGYYLDYWGQGTTLTVSS
VH 2: MQVQLQQSGPELVKPGASVKISCKASGYTFTDNNMDWVKQSHGKGLEWIGDINTKSGGSIYNQKFKGKATLTIDKSSSTAYMELRSLTSEDTAVYYCARRRSYGYYFDYWGQGTTLTVSS
VL: DIVMTQSHKFMSTSIGDRVSITCKASQNVGTAVAWYQQKPGQSPKLLIYSASYRYSGVPDRFTGSRYGTDFTLTISNVQSEDLADYLCQQYSSYLTFGGGTKLELKR
Regarding B3, the “reduction … against no antibody” value in test [2] is ≥ 80 s; in test [1], > 80 s.

B4: A44/B26 (bispecific antibody, V domains shown)
VH 1: MQVQLQQSGAELAKPGASVKLSCKASGYTFTSSWMHWIKQRPGQGLEWLGYINPSSGYTKYNRKFRDKATLTADKSSSTAYMQLTSLTYEDSAVYYCARGGNGYYFDYWGQGTTLTVSS
VL 1: DIVMTQSHKFMSTSVGDRVSITCKASQDVGTAVAWYQQKPGQSPKLLIYWASTRHTGVPDRFTGSRYGTDFTLTISNVQSEDLADYLCQQYSNYITFGGGTKLELKR
VH 2: MQVQLQQSGPELVKPGASVKISCKASGYTFTDNNMDWVKQSHGKGLEWIGDINTKSGGSIYNQKFKGKATLTIDKSSSTAYMELRSLTSEDTAVYYCARRRSYGYYFDYWGQGTTLTVSS
VL 2: DIVLTQSQKFMSTSVGDRVSITCKASQNVGTAVAWYQQKPGQSPKALIYSASYRYSGVPDRFTGSGSGTDFTLTISNVQSEDLAEYFCQQYNSYPLTFGAGTKLEIKR
As for B4, the reduction of coagulation time against no antibody is > 50 s in test [3] and ≥ 50 s in test [2].

B5: chimeric bispecific antibody (A69/B26/BBA) (bispecific antibody, V domains shown)
VH 1: MEVQLQQSGAELVKPGASVKLSCTASGFNIKDYYMHWIKQRPGQGLEWLGYINPSSGYTKYNRKFRDKATLTADKSSSTAYMQLTSLTYEDSAVYYCARGGNGYYLDYWGQGTTLTVSS
VH 2: MQVQLQQSGPELVKPGASVKISCKASGYTFTDNNMDWVKQSHGKGLEWIGDINTKSGGSIYNQKFKGKATLTIDKSSSTAYMELRSLTSEDTAVYYCARRRSYGYYFDYWGQGTTLTVSS
VL: DIVMTQSHKFMSTSVGDRVSITCKASQNVGTAVAWYQQKPGQSPKLLIYSASYRYSGVPDRFTGSRYGTDFTLTISNVQSEDLADYLCQQYSNYITFGGGTKLELKR
For B5, the “reduction … against no antibody” value in test [2] is ≥ 80 s; in test [1] it was > 80 s.

Source of the values: US20260109782A1 (Chugai, published 2026).
